Laboratory results reported in US7098001B2, “Polypeptides having dipeptidyl aminopeptidase activity and nucleic acids encoding same” (Novozymes, Inc., priority 1997, dated 2006).

How the values were obtained:
Type in all cases: biochemical
[1] = pH optimum / pH-activity profile of dipeptidyl aminopeptidase I with Ala-Pro-pNA; settings: for Average Activty: 2 mg/ml Ala-Pro-pNA, ambient temperature, 5 minutes; for Avg. Activity-Background: corrected for autohydrolysis of Ala-Pro-pNA
Description: The Ala-Pro-pNA substrate was prepared by dissolving 100 mg of Ala-Pro-pNA in 1 ml of DMSO and adding 20 μl of the Ala-Pro-pNA-DMSO solution to 980 μl of the universal buffer at the various pH values at ambient temperature. The assay was initiated by adding a 10 μl aliquot of the dipeptidyl aminopeptidase I diluted 20-fold in water to 200 μl of 2 mg/ml Ala-Pro-pNA at the various pH values. The absorbance at 405 nm was monitored for 5 minutes. Autohydrolysis of the substrate as a control was determined by adding 10 μl of water to 200 μl of 2 mg/ml Ala-Pro-pNA at the various pH values.

[2] = activity of the purified enzymes on Leu-pNA; settings: 100-fold dilution
Description: The enzyme solution was then loaded onto a XK-26 column containing Q-Sepharose Big Beads pre-equilibrated with 20 mM phosphate buffer pH 7.5 buffer. A gradient was run from 0 to 300 mM NaCl, and then washed with 350 ml of 300 mM NaCl. Fractions were assayed for Leu-pNA activity according to the following protocol. The substrate was prepared by dissolving 2 mg of Leu-pNA (Sigma Chemical Co., St. Louis, Mo.) in 20 μl of DMSO. Then, 980 μl of 50 mM sodium phosphate pH 7.5 buffer was added. In a 96 well microtiter plate, 100 μl of the substrate solution was added to 100 μl of Aspergillus oryzae aminopeptidase I (100 fold diluted in 50 mM sodium phosphate pH 7.5 buffer) and the increase in absorbance at 405 nm was measured for 4 minutes using a SpectroMax 340 plate reader.
The purified aminopeptidase I was determined to have an activity of 26.822 LAPUs/ml for Leu-pNA using an extinction coefficient of 10,000 for para-nitroaniline at 405 nm. LAPU is defined as the leucine aminopeptidase activity which is determined as described in AF 298/1-GB (available on request from Novo Nordisk A/S, Denmark). The purified dipeptidyl aminopeptidase I was determined to have an activity of 11.54 DPAPU/ml for Ala-Pro-pNA, also using an extinction coefficient of 10000 for paranitroaniline. […]

[3] = test system: gelatin, soy bean meal tablets, wheat gluten, and sodium-caseinate; assay: degree of hydrolysis (DH) assays, OPA method; settings: 0.125 mg added to FLAVOURZYME 3 mg and ALCALASE 3 mg; 50 C, 18 hours; all proteins tested
Description: The degree of hydrolysis (DH) assays were performed at 50 ? C for 18 hours as a mini-hydrolysis on a 10 ml scale using gelatin, soy bean meal tablets, wheat gluten, and sodium-caseinate at a 2% concentration adjusted to pH 7, if necessary, with no pH adjustment during hydrolysis. The hydrolyses were inactivated at 85 ? C for 3 minutes in a waterbath. The enzymes used were FLAVOURZYME™ with ALCALASE™ 2.4L (Novo Nordisk A/S, Bagsvrd, Denmark) and dipeptidyl aminopeptidase I with FLAVOURZYME™ and ALCALASE™ 2.4L. FLAVOURZYME™, ALCALASE™, and dipeptidyl aminopeptidase I were dosed at 3 mg, 3 mg, 0.125 mg, respectively, per 200 mg of protein per ml.
The DH, as defined by Adler-Nissen (1986, Enzymic Hydrolysis of Food Proteins, Elsevier Applied Science Publishers), was determined by reaction of the supernatant with OPA (ortho-phtaldialdehyde, Sigma Chemical Co., St. Louis, Mo.). […]
A volume of 25 μl of suitably diluted supernatant was mixed with 200 μl of OPA reagent in a microtiter plate well and allowed to react for exactly 2 minutes at 25 ? C The absorbance at 340 nm was measured in a microtiter plate reader and compared to the absorbance of a […] L-serine standard solution after subtraction of the blank value (water reacted with OPA-reagent). […] The degree of hydrolysis was calculated on basis of the total amount of protein in the hydrolysis mixture (not on basis of soluble protein).

pH of optimal activity ([1]; Ala-Pro-pNA as substrate): ~8.7
pH range over which activity toward Ala-Pro-pNA was possessed ([1]; measured pH range): 4.35 to 9.83
Average Activty ([1]; pH 4.35): 8.75 mOD/min
Avg. Activity-Background ([1]; pH 4.35): 8.75 mOD/min
Relative Activty ([1]; pH 4.35, relative to pH 8.71): 0.023
Average Activty ([1]; pH 4.87): 32.5 mOD/min
Avg. Activity-Background ([1]; pH 4.87): 32.5 mOD/min
Relative Activty ([1]; pH 4.87, relative to pH 8.71): 0.088
Average Activty ([1]; pH 5.36): 75.75 mOD/min
Avg. Activity-Background ([1]; pH 5.36): 75.75 mOD/min
Relative Activty ([1]; pH 5.36, relative to pH 8.71): 0.20
Average Activty ([1]; pH 5.86): 113.8 mOD/min
Avg. Activity-Background ([1]; pH 5.86): 113.8 mOD/min
Relative Activty ([1]; pH 5.86, relative to pH 8.71): 0.307
Average Activty ([1]; pH 6.38): 135.48 mOD/min
Avg. Activity-Background ([1]; pH 6.38): 135.48 mOD/min
Relative Activty ([1]; pH 6.38, relative to pH 8.71): 0.365
Average Activty ([1]; pH 6.85): 168.45 mOD/min
Avg. Activity-Background ([1]; pH 6.85): 166.45 mOD/min
Relative Activty ([1]; pH 6.85, relative to pH 8.71): 0.45
Average Activty ([1]; pH 7.2): 188.86 mOD/min
Avg. Activity-Background ([1]; pH 7.2): 186.86 mOD/min
Relative Activty ([1]; pH 7.2, relative to pH 8.71): 0.503
Average Activty ([1]; pH 7.51): 230.97 mOD/min
Avg. Activity-Background ([1]; pH 7.51): 227.97 mOD/min
Relative Activty ([1]; pH 7.51, relative to pH 8.71): 0.615
Average Activty ([1]; pH 7.97): 308.52 mOD/min
Avg. Activity-Background ([1]; pH 7.97): 302.72 mOD/min
Relative Activty ([1]; pH 7.97, relative to pH 8.71): 0.817
Relative Activty ([1]; pH 8.71): 1
Average Activty ([1]; pH 8.71): 383.15 mOD/min
Avg. Activity-Background ([1]; pH 8.71): 370.65 mOD/min
Average Activty ([1]; pH 9.32): 247.68 mOD/min
Avg. Activity-Background ([1]; pH 9.32): 217.88 mOD/min
Relative Activty ([1]; pH 9.32, relative to pH 8.71): 0.588
Average Activty ([1]; pH 9.83): 171 mOD/min
Avg. Activity-Background ([1]; pH 9.83): 97 mOD/min
Relative Activty ([1]; pH 9.83, relative to pH 8.71): 0.261
velocity on Leu-pNA [2]: < 2 mOD/min
increase of the degree of hydrolysis above FLAVOURZYME and ALCALASE alone [3]: 5%
B1: dipeptidyl aminopeptidase I: Recombinant Aspergillus oryzae 1568 (ATCC 20386) dipeptidyl aminopeptidase I, 771 amino acids (SEQ ID NO:2), produced in Fusarium and purified (protein, listed as Aspergillus oryzae)
chain: MKYSKLLLLLVSVVQALDVPRKPHAPTGEGSKRLTFNETVVKQAITPTSRSVQWLSGAEDGSYVYAAEDGSLTIENIVTNESRTLIPADKIPTGKEAFNYWIHPDLSSVLWASNHTKQYRHSFFADYYVQDVESLKSVPLMPDQEGDIQYAQWSPVGNTIAFVRENDLYVWDNGTVTRITDDGGPDMFHGVPDWIYEEEILGDRYALWFSPDGEYLAYLSFNETGVPTYTVQYYMDNQEIAPAYPWELKIRYPKVSQTNPTVTLSLLNIASKEVKQAPIDAFESTDLIIGEVAWLTDTHTTVAAKAFNRVQDQQKVVAVDTASNKATVISDRDGTDGWLDNLLSMKYIGPIKPSDKDAYYIDISDHSGWAHLYLFPVSGGEPIPLTKGDWEVTSILSIDQERQLVYYLSTQHHSTERHLYSVSYSTFAVTPLVDDTVAAYWSASFSANSGYYILTYGGPDVPYQELYTTNSTKPLRTITDNAKVLEQIKDYALPNITYFELPLPSGETLNVMQRLPPGFSPDKKYPILFTPYGGPGAQEVTKRWQALNFKAYVASDSELEYVTWTVDNRGTGFKGRKFRSAVTRQLGLLEAEDQIYAAQQAANIPWIDADHIGIWGWSFGGYLTSKVLEKDSGAFTLGVITAPVSDWRFYDSMYTERYMKTLSTNEEGYETSAVRKTDGFKNVEGGFLIQHGTGDDNVHFQNSAALVDLLMGDGVSPEKLHSQWFTDSDHGISYHGGGVFLYKQLARKLYQEKNRQTQVLMHQWTKKDLEE
